Data as given in paper PMC11946513, “Modulation of the substrate preference of a MYST acetyltransferase by a scaffold protein” (The Journal of Biological Chemistry, 2025).

Columns and labels:
[1] = target: KAT6A MYST domain (KAT6A 501-784) (human) (UniProt Q92794)
[2] = target: full-length KAT6A (KAT6A^FL) (human) (UniProt Q92794)
[3] = target: KAT6A^FL 4-protein complex (KAT6A^FL 4-plex) (UniProt Q92794)
[4] = target: KAT6A^FL-BRPF1 2-protein complex (KAT6A^FL 2-plex) (human) (UniProt Q92794)
KAT6A^FL-BRPF1 2-protein complex (KAT6A^FL 2-plex) (human), sequence (Q92794 whole entry, chain 1 of 2): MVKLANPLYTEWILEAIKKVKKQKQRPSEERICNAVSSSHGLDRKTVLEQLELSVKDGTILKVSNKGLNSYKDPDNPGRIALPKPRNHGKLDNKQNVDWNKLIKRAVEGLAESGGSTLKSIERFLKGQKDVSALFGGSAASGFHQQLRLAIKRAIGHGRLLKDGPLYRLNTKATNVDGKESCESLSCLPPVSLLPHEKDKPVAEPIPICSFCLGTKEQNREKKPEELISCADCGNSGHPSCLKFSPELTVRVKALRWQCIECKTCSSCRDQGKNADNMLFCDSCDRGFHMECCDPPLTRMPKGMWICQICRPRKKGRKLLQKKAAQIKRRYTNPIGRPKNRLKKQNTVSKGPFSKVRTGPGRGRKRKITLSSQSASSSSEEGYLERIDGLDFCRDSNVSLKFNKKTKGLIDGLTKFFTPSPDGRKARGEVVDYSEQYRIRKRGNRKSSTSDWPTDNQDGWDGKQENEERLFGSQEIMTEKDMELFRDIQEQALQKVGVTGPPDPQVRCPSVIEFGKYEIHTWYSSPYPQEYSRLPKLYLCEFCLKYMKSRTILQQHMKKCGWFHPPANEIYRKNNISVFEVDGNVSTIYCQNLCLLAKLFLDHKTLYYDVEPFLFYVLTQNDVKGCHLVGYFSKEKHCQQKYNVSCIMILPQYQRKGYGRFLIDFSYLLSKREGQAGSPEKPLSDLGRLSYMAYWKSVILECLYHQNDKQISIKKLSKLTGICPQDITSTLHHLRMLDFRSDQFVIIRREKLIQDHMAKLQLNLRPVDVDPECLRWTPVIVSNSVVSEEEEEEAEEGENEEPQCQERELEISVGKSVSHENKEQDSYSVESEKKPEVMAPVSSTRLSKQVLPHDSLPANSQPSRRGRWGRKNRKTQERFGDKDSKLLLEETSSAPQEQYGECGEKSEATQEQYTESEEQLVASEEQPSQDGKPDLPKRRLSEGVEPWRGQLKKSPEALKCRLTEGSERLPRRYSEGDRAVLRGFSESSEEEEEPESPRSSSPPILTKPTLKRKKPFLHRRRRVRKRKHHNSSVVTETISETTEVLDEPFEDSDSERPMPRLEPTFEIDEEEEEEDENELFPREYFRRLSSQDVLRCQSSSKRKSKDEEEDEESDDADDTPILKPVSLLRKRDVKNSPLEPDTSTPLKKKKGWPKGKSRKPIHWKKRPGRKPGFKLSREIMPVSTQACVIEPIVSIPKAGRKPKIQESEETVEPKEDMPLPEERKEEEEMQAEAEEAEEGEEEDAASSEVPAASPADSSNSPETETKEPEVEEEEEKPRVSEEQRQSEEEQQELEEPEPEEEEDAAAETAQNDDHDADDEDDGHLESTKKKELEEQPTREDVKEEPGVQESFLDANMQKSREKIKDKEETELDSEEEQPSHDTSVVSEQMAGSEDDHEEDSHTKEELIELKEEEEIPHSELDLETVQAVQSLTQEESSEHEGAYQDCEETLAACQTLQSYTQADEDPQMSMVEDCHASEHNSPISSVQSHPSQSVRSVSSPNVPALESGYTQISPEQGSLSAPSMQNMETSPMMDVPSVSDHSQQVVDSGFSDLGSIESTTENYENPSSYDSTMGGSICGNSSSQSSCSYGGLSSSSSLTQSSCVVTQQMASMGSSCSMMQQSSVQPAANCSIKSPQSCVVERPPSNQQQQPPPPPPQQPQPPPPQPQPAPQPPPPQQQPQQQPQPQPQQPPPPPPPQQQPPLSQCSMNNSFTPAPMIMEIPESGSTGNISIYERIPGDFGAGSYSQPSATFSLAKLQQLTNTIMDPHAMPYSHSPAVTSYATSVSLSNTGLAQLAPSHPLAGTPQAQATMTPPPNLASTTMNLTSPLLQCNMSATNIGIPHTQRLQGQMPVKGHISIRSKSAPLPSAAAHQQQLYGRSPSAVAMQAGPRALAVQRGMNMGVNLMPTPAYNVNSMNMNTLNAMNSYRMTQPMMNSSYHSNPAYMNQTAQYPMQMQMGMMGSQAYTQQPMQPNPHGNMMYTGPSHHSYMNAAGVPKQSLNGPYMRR
KAT6A^FL-BRPF1 2-protein complex (KAT6A^FL 2-plex) (human), sequence (P55201 whole entry, chain 2 of 2, further chain): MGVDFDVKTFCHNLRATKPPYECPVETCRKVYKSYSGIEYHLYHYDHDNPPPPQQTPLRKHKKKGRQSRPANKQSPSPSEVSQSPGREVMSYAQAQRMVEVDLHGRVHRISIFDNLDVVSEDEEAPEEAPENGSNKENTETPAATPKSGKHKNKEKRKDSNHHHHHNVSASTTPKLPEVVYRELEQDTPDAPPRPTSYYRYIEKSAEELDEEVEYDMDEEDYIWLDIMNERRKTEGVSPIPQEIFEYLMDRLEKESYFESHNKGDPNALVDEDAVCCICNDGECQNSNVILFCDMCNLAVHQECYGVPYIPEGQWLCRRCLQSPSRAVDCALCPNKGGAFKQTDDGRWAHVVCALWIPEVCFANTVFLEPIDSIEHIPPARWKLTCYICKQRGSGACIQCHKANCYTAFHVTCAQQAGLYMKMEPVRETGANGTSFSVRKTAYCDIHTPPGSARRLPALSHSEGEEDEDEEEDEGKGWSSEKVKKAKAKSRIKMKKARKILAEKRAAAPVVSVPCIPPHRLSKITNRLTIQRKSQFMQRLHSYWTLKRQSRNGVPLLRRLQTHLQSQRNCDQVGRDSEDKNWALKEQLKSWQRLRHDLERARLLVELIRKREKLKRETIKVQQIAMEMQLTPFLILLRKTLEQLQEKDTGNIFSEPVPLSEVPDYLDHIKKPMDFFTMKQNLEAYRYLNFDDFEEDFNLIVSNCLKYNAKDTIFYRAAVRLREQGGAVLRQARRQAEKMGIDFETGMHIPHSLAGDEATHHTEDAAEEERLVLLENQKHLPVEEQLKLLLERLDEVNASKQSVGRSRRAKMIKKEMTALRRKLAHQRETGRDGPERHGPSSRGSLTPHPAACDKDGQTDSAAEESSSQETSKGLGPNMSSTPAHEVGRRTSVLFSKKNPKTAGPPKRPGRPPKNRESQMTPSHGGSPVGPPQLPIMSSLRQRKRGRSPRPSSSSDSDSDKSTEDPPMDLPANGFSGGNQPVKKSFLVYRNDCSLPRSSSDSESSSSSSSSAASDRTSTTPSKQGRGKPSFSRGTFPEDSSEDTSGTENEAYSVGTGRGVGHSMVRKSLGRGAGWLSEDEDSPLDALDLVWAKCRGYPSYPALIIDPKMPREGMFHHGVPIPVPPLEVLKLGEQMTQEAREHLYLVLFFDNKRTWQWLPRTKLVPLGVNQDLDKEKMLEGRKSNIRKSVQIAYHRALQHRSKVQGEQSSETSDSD

KAT6A MYST domain (KAT6A 501-784) (human), sequence (Q92794 501-784): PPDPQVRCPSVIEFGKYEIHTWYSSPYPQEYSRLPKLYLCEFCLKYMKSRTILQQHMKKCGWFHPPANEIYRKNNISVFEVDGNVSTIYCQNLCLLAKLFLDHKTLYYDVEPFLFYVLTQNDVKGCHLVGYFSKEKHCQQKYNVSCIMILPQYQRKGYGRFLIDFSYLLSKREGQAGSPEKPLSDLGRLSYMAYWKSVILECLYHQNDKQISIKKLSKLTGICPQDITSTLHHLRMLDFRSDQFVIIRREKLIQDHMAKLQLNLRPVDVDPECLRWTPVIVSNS
full-length KAT6A (KAT6A^FL) (human), sequence (Q92794 whole entry): as the sequence (Q92794 whole entry, chain 1 of 2) above
KAT6A^FL 4-protein complex (KAT6A^FL 4-plex), sequence (Q92794 whole entry, looked up, one chain of several): as the sequence (Q92794 whole entry, chain 1 of 2) above

KM of steady-state acetylation of the peptide (CoA formation by MS; 20 μM AcCoA, 25 °C) [1] [µM]	KM of steady-state acetylation of the peptide (CoA formation by MS; 20 μM AcCoA, 25 °C) [2] [µM]	KM of steady-state acetylation of the peptide (CoA formation by MS; 20 μM AcCoA, 25 °C) [3] [µM]	KM of steady-state acetylation of the peptide (CoA formation by MS; 20 μM AcCoA, 25 °C) [4] [µM]	Substance
380	16			H3 (1-21) (peptide)
360	30	16	13	H3.3 (15-36) (peptide)
130	3.2			H3.3 (1-43) (peptide)
